The source of these data is PMC4011586.

For this assay, the target named is human platelet-derived growth factor alpha receptor (human (endogenous in U373)) (UniProt P16234).
Chain of UniProt P16234 (P16234 24-1089): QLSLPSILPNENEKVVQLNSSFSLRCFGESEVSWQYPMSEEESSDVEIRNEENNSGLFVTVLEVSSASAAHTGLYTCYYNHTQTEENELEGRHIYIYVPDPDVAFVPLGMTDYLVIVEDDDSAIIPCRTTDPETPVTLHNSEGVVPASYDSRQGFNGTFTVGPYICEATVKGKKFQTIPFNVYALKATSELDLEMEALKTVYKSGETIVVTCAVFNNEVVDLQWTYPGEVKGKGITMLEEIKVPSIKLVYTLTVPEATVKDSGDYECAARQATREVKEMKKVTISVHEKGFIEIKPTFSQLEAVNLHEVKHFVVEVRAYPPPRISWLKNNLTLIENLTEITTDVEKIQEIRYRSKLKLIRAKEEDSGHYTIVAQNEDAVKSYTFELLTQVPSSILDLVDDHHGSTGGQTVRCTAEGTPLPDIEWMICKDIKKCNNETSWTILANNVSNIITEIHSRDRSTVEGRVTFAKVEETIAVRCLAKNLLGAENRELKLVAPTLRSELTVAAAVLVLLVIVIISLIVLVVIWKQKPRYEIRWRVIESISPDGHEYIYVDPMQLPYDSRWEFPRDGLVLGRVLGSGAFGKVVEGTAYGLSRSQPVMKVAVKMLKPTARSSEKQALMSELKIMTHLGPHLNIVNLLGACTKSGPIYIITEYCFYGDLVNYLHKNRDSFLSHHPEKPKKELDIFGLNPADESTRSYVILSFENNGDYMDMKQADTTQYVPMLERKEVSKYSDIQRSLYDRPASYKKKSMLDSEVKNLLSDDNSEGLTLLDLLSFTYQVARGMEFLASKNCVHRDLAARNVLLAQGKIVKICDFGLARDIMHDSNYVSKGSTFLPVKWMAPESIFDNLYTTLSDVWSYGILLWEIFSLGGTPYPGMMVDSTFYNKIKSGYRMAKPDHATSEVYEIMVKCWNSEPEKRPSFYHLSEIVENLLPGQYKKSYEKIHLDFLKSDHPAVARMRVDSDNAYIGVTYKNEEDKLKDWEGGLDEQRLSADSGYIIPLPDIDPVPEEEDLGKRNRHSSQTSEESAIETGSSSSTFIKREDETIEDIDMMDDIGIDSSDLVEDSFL

On to “recombinant HCMV glycoprotein B (from UniProt P13201 23-907) (ligand)”, for which the phosphorylation of PDGFRα in U373 cells stimulated with recombinant gB, cell based ELISA, relative to PDGF-AA (100%) was found to be 50%.
